{"source": "paper PMC2169334", "target": "ankyrin-B (UniProt Q01484)", "sequence (Q01484 whole entry)": "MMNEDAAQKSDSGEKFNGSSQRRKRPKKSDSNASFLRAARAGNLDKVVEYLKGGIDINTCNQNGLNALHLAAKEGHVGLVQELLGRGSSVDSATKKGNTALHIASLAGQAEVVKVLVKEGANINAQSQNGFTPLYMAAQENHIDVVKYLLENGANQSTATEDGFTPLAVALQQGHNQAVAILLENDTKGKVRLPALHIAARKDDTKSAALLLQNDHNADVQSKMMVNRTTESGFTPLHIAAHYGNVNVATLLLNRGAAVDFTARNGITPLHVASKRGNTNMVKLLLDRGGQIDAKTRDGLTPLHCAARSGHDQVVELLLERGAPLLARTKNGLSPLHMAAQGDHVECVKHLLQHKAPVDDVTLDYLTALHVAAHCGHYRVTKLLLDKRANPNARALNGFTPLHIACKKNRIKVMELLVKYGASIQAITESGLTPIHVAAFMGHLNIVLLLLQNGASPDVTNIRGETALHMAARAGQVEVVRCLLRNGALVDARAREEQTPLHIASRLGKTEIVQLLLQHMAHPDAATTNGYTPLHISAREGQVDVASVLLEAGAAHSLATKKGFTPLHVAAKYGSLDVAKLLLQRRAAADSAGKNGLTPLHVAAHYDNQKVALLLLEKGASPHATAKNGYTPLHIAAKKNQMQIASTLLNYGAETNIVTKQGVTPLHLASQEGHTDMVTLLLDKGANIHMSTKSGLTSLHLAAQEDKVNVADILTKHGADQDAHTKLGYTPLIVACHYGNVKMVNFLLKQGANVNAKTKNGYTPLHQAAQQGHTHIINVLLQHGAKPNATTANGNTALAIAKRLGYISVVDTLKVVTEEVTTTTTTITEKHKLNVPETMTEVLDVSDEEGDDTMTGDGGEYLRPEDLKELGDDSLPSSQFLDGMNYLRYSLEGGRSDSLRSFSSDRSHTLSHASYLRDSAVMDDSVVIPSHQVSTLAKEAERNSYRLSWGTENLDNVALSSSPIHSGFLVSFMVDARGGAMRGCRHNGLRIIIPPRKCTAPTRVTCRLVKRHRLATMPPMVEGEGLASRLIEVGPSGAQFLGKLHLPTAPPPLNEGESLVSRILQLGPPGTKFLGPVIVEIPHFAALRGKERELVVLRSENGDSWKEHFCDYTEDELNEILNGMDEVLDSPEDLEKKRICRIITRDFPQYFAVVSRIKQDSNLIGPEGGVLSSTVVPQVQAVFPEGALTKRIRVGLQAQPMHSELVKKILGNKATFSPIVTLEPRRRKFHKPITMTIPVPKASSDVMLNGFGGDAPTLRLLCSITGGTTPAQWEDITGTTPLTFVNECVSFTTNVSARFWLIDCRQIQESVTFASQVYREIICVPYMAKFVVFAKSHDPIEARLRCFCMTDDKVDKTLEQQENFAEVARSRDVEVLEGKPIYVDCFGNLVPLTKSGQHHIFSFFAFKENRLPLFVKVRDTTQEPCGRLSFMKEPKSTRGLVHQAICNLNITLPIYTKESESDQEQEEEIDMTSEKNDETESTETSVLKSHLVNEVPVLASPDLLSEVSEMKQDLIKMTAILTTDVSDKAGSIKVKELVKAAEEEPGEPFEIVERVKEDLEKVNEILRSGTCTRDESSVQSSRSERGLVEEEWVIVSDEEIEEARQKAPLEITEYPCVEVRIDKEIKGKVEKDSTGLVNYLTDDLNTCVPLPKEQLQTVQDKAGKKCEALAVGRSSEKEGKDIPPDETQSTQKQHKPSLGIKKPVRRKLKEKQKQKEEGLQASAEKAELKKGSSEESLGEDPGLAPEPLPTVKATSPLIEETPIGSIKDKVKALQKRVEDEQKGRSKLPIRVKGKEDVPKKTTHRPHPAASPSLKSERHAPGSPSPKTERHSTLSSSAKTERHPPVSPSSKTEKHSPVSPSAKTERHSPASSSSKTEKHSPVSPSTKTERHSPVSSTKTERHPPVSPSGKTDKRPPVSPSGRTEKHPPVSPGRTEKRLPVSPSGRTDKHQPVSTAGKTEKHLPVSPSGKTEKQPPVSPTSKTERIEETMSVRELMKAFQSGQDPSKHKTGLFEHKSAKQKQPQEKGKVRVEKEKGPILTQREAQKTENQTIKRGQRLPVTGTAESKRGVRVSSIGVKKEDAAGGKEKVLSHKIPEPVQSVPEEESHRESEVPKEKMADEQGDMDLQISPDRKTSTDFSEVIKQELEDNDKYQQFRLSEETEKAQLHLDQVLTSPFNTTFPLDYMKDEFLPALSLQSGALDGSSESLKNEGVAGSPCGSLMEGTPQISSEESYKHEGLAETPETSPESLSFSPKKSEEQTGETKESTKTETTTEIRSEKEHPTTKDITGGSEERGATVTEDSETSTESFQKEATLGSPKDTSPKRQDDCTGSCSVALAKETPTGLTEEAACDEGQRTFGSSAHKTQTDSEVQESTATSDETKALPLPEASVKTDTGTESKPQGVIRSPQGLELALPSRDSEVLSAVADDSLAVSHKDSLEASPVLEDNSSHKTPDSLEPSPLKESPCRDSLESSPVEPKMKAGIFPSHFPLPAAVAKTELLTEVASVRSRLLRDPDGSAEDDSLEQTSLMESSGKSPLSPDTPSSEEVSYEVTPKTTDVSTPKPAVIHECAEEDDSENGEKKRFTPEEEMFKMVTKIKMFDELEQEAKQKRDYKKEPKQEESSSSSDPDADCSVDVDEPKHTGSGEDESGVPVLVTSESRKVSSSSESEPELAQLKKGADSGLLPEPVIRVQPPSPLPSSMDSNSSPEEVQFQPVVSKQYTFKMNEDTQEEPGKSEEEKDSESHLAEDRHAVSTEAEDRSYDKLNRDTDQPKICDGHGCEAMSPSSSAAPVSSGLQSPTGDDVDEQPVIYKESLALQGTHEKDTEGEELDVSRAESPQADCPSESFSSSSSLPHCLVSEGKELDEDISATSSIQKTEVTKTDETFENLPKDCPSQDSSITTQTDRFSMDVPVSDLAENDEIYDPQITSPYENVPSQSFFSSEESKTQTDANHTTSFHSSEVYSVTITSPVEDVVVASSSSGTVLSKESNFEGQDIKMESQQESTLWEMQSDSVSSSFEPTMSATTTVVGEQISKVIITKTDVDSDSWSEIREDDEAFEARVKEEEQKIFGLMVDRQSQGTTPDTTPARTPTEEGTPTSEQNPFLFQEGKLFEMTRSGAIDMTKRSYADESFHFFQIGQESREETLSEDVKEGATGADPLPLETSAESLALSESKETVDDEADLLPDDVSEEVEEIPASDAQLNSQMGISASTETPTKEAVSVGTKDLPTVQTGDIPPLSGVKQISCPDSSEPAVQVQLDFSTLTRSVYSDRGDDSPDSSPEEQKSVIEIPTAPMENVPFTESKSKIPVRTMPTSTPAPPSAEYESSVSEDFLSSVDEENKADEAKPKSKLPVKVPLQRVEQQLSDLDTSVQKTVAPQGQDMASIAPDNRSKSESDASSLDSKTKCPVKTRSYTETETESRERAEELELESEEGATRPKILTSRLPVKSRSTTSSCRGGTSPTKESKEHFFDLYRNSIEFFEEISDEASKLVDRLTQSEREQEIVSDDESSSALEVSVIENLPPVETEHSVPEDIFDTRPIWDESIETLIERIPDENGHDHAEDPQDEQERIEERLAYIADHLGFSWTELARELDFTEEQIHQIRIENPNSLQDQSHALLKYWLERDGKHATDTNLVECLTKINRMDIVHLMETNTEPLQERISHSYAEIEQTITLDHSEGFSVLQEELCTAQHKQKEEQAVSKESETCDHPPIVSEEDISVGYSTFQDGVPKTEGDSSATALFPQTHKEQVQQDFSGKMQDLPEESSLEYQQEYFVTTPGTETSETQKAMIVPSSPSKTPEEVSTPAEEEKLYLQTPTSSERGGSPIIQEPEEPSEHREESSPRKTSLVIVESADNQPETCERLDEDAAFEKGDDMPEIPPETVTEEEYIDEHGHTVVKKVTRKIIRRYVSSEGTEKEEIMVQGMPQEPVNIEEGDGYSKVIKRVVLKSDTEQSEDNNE"}
{"substance": "IP3 receptor (from UniProt P29994 1-2750)", "values": [{"measurement": "Kd", "result": 200, "unit": "nM"}]}
